Target: QsdR (Quorum sensing degradation Regulation) wild type, transcriptional regulator of the TetR/FabR family (Rhodococcus erythropolis R138)
Experiment: SEC; gel filtration Superdex 200 26/60, buffer A (50 mM Tris-HCl pH 8, 150 mM NaCl); molecular mass estimate 44 kDa

## QsdR (Quorum sensing degradation Regulation) wild type, transcriptional regulator of the TetR/FabR family (natural protein)
  stoichiometry N: 2

From PMC4640858
